Patent publication US11673916B2, “Neuroprotective peptides and methods of their use” (University of Pittsburgh—Of the Commonwealth System of …, priority 2020, dated 2023)

Biological target: T1, Kv2.1 surface clusters (Rattus norvegicus, UniProt P15387)
T1 construct: expressed in transfected cells; host or cells: primary rat cortical neurons (E16-17 Sprague-Dawley), Lipofectamine 2000
T1 sequence (P15387 1-857): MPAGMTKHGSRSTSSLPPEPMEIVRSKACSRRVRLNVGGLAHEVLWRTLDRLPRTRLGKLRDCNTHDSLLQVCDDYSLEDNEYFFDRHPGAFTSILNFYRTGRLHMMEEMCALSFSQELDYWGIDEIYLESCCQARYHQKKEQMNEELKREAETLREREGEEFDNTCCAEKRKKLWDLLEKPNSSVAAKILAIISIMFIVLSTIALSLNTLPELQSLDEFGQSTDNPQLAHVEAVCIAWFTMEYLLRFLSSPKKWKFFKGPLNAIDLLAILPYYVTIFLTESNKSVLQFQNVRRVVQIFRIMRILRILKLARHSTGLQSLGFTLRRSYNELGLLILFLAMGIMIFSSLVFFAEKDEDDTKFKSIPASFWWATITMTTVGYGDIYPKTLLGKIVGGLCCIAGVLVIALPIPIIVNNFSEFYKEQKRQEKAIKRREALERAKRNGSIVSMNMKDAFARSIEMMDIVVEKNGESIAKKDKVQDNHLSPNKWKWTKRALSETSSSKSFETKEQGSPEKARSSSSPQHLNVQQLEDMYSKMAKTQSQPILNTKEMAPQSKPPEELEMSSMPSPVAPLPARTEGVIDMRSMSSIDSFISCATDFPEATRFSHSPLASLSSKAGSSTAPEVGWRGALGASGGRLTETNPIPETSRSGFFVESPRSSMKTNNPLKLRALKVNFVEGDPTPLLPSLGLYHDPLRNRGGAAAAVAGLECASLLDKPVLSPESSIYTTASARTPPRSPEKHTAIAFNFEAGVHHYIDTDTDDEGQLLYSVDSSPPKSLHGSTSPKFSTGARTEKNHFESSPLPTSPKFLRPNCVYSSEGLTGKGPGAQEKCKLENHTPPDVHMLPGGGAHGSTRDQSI
Experiment: Kv2.1 surface cluster density in live Kv2.1-GFP-transfected cortical neurons treated with TAT-linked peptides
Type: cell-based
Details: 10 μM, two-hour treatment, mean±SEM (FIG. 12B)
Procedure: In vitro experiments utilized primary cortical neuronal cultures prepared from embryonic day 16-17 Sprague-Dawley rats of either sex in a protocol described previously (McCord et al., J Physiol (Lond). 592: 3511-3521, 2014). Timed-pregnant rats (Charles River Laboratories, Wilmington, Mass.) were sacrificed by CO2 inhalation. Embryonic cortices were dissociated with trypsin (0.6 mg/mL) and cells plated in sterile 6-well plates on poly-L-ornithine-coated glass coverslips at a density of 670,000 cells per well. Cytosine arabinoside (1-2 μM) was utilized to inhibit non-neuronal proliferation on day 14 in vitro (DIV); cultures were utilized at 21-25 DIV.
; Invitrogen, Carlsbad, Calif.). […]
To analyze Kv2.1 distribution in live primary cortical neurons, cells were transfected with both a tdTomato construct and a GFP-tagged Kv2.1 construct (O'Connell, et al., J Neurosci. 26: 9609-9618, 2006) and imaged on a Nikon A1+ confocal microscope (Nikon, Tokyo, Japan). […] For live images of transfected neurons, object count parameters were customized to define a Kv2.1 cluster as an area of high intensity GFP fluorescence (compared to background), measuring 0.05 μm^2 or larger (Schulien et al., J Physiol (Lond). 594: 2647-2659, 2016). Kv2.1 cluster density was calculated by normalizing the number of Kv2.1 clusters counted to the somatic area of each neuron (#Kv2.1 clusters/μm^2). […]

Sequence	mean Kv2.1 surface cluster density
YGRKKRRQRRRAIDAFTA [TAT-DP-2A, TAT-linked serine to alanine mutant of DP-2]	0.14±0.02 #Kv2.1 clusters/μm^2 of neuronal soma
YGRKKRRQRRRDIDDFTD [TAT-DP-2D, TAT-linked peptide containing serine to aspartate mutations]	0.08±0.02 #Kv2.1 clusters/μm^2 of neuronal soma
